Consider three molecules from US20200347137A1.

In general, Kd refers to the concentration at which binding is half-saturated. What is called koff is the first-order rate constant of dissociation. As a reminder, the kon is the second-order rate constant of association.

The labels stand for the following.
B1: PL230C6 scFv-Fc (Fc fusion, part only; not given: linker and Fc, part only)
chain, part: QSVEESGGGLVQPGGSLRLSCTASGIDLNTYDMIWVRQAPGKGLEWVGIITYSGSRYYANWAKGRFTISKDNTKNTVYLQMNSLRAEDTAVYYCARDYMSGSHLWGQGTLVTVSSGGGGSGGGGSGGGGSGGGGSAYDMTQSPSSVSASVGDRVTIKCQASEDIYSFLAWYQQKPGKAPKLLIHSASSLASGVPSRFSGSGSGTDFTLTISSLQPEDFATYYCQQGYGKNNVDNAFGGGTKVEIK
B2: PL004B9 scFv-Fc (Fc fusion, part only; not given: linker and Fc, part only)
chain, part: EVQLVESGGGLVQPGGSLRLSCTVSGIDLSVINMGWVRQAPGKGLEWIGTITYVGNTYYASWAKGRFTISKTSTTVDLKITSPTTEDTAVYYCARESGTIYYSYFNLWGQGTLVTVSSGGGGSGGGGSGGGGSGGGGSAFELTQSPSSLSASVGDRVTIKCQASESISNYLSWYQQIPGKVPKLLIYYASNLASGVPSRFSGSGSGTDFTLTISSLQPEDVATYYCQSYYGGGSAYTFGGGTKVEIK
B3: PL221G5 scFv-Fc (Fc fusion, part only; not given: linker and Fc, part only)
chain, part: EVQLLESGGGLVQPGGSLRLSCAASGFSFSSGYDMCWVRQAPGKGLEWIACIAAGSAGITYDANWAKGRFTISRDNSKNTLYLQMNSLRAEDTAVYYCARSAFSFDYAMDLWGQGTLVTVSSGGGGSGGGGSGGGGSGGGGSDIQMTQSPSTLSASVGDRVTITCQASQSISSHLNWYQQKPGKAPKLLIYKASTLASGVPSRFSGSGSGTEFTLTISSLQPDDFATYYCQQGYSWGNVDNVFGGGTKVEIK

PD-L1 recombinant protein (human), sequence (Q9NZQ7 19-238 limits assumed): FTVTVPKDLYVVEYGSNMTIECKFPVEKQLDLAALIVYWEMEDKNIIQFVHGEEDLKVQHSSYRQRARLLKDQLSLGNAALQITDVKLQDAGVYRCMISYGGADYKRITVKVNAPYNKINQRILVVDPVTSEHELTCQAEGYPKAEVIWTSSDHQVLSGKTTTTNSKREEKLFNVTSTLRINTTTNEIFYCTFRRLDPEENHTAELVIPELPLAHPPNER

This test concerns the target PD-L1 recombinant protein (human) (UniProt Q9NZQ7). The test can be described thus: ForteBio Octet RED96, PD-L1 immobilised, antibody in solution. For orientation: Biolayer interferometry detects binding as a change in optical thickness at a sensor tip.
In the case of B1, the Kd was found to be 0.917 nM, the koff came to 0.000461 s⁻¹ and the kon was 503000 M⁻¹ s⁻¹.

In the case of B2, the Kd turned out to be 1.42 nM, the koff is 0.00055 s⁻¹ and the kon came out at 387000 M⁻¹ s⁻¹.

For B3, the Kd worked out at 0.597 nM, the koff worked out at 0.000303 s⁻¹ and the kon turned out to be 508000 M⁻¹ s⁻¹.
